This note sets out measurements from patent US20230331848A1 (BIOSION, published 2023).

Residue numbers refer to the chain shown, from its start.

Assay [1] has as its target T1, human PD-1 expressed on GS-J2/PD-1 cells (Genscript) (human, UniProt Q15116 25-288).
T1 construct: whole, on cells; also called cell-surface human PD-1
Put plainly: cell-based binding FACS on GS-J2/PD-1 cells expressing human PD-1 (MFI); unit from the axis 'Con of mAb, nM.'. The protocol:
The mouse anti-PD-1 antibodies of the disclosure were also tested for their binding activities to human PD-1s expressed on cell surface by flow cytometry (FACS), using GS-J2/PD-1 cell line (Genscript) expressing cell-surface human PD-1s.
In specific, the 293F-mouse PD-1 cells and GS-J2/PD-1 cells were respectively harvested from cell culture flasks, washed twice and re-suspended in PBS containing 2% v/v Fetal Bovine Serum (FACS buffer). Then, 2×10⁵ cells per well were incubated in 96 well-plates with 100 μl of the anti-PD1 antibodies or controls at various concentrations for 40 minutes on ice. […] Following an incubation of 40 minutes at 4° C. in dark, cells were washed three times and re-suspended in FACS buffer. Fluorescence was measured using a Becton Dickinson FACS Canto II-HTS equipment and plotted against antibody concentrations. Data was analyzed using GraphPad Prism software and EC₅₀ values were reported.

Assay [2] addresses T2, in house made human PD-1-Fc protein (human, biotin-labeled (sites not given)).
T2 construct: also called biotin-labeled human PD-1-Fc
As to the kind of experiment: capture ELISA: antibody captured on anti-mouse IgG F(ab')2 coated plate, biotin-labeled human PD-1-Fc detected with streptavidin-HRP; unit from the axis 'Con of mAb, nM.'. As to the method:
Briefly, 96-well micro plates were coated with 100 μl 2 μg/ml AffiniPure Goat Anti-Mouse IgG F(ab′)₂ fragment specific (Cat#:115-005-072, Jackson lmmunoResearch) or Goat-anti-human IgG (Cat#:109-005-097, Jackson ImmunoResearch, for the positive control and negative control) in PBS overnight at 4° C. Plates were washed once with wash buffer (PBST, PBS+0.05% Tween-20) and then blocked with 200 μl/well blocking buffer (5% w/v non-fatty milk in PBST) for 2 hours at 37° C. […] After a final wash, plates were incubated with 100 μl/well TMB (Cat#:TMB-S-002, Innoreagents) at room temperature.
The reaction was stopped 3-10 minutes later with 50 μl/well 1M H₂SO₄, and the absorbance was read on a microplate reader using dual wavelength mode with 450 nm for TMB and 630 nm as the reference wavelength. The OD (450-630) values were plotted against antibody concentrations. Data was analyzed using GraphPad Prism software and EC₅₀ values were reported.

Assay [3] addresses T2, in house made human PD-1-Fc protein. As to the kind of experiment: cell-based blocking FACS: antibody pre-mixed with biotin-labeled human PD-1-Fc, added to GS-C2/PD-L1 cells expressing human PD-L1 (blocked ligand); unit from the axis 'Con of mAb, nM.'. As to the method: GS-C2/PDL1 cells were harvested from cell culture flasks at the log phase, washed twice and re-suspended in PBS containing 2% v/v Fetal Bovine Serum (FACS buffer). GS-C2/PD-L1 cells, 0.6×10⁵ cells per welt, were incubated in 96 well-plates with 100 the antibody/PD1-Fc mixture for 40 minutes at 4° C. Cells were washed twice with FACS buffer, added with 100 R-Phycoerythrin Streptavidin (1:500 dilution in FACS buffer, Cat#:016-110-084, Jackson Immunoresearch), and incubated for 40 minutes at 4° C. in dark. Cells were washed twice and re-suspended in FACS buffer. Fluorescence was measured using a Becton Dickinson FACS Canto II-HTS equipment. Data was analyzed using Graphpad Prism software and IC₅₀ values were reported.

Assay [4] has the same target. As to the kind of experiment: competitive ELISA: antibody pre-mixed with biotin-labeled human PD-1-Fc, added to coated Pembrolizumab (competitor); unit from the axis 'Con of mAb, nM.'. As to the method:
ELISA plates were washed once with wash buffer (PBST, PBS+0.05% Tween-20) and then blocked with 200 μl/well blocking buffer (5% w/v non-fatty milk in PBST) for 2 hours at 37° C. […] After incubation at 37° C. for 40 minutes, plates were washed using wash buffer, added and incubated with 100 μl/well Peroxidase Streptavidin for 40 minutes at 37° C. Plates were washed again using wash buffer. Finally, TMB was added and the reaction was stopped using 1M H₂SO₄. The absorbance was read on a microplate reader using dual wavelength mode with 450 nm for TMB and 630 nm as the reference wavelength, and the OD (450-630) values were plotted against antibody concentrations. Data was analyzed using Graphpad Prism software and IC₅₀ values were reported.
(ELISA stands for enzyme-linked immunosorbent assay.)

The target of assay [5] is T3, cynomolgus PD-1-his protein (Cat#:PD1-05223, Acro biosystems Inc.) (cynomolgus, UniProt B0LAJ3 25-170).
T3 construct: Bought protein used in Biacore and indirect ELISA; also called monkey PD-1; Cyno PD-1
Put plainly: SPR (Biacore T200), antibody captured, PD-1-his in flow, 1:1 fit. The text has this: (§1) The purified anti-PD-1 mouse monoclonal antibodies (mAbs) generated in Example 1 were characterized for binding affinities and binding kinetics by Biacore T200 system (GE healthcare, Pittsburgh, Pa., USA).
(§2) Briefly, Goat-Anti-Mouse IgG (Cat#: BR100838, GE healthcare, Mouse Antibody Capture Kit) was covalently linked to a CMS chip (carboxy methyl dextran coated chip, Cat#: BR100530, GE healthcare) via primary amines using a standard amine coupling kit (GE healthcare, Pittsburgh, Pa., USA) provided by Biacore. Un-reacted moieties on the biosensor surface were blocked with ethanolamine. A Protein G chip (Cat#:29-1793-15, GE healthcare) was used for the positive controls affinity determination. The anti-PD-1 antibodies of the disclosure and the two positive controls at the concentration of 2 μg/ml were respectively flowed onto the chip at a flow rate of 10 μl/min. Then, serially diluted recombinant human PD-1-his protein (Cat#:10377-H08H, Sino biological Inc.), cynomolgus PD-1-his protein (Cat#:PD1-05223, Acro biosystems Inc.) and recombinant mouse PD-1-his protein (Cat#:50124-M08H, Sino Biological Inc), 2-fold dilution in HBS-EP⁺ buffer (provided by Biacore) starting at 200 nM, were respecitvely flowed onto the chip at a flow rate of 30 μl/min. The antigen-antibody association kinetics was followed for 2 minutes and the dissociation kinetics was followed for 10 minutes. The association and dissociation curves were fit to a 1:1 Langmuir binding model using Biacore evaluation software.
(In general: SPR reads the build-up and loss of mass on a sensor chip optically.)

Assay [6] addresses T4, recombinant human PD-1-his protein (Cat#:10377-H08H, Sino biological Inc.) (human, UniProt Q15116 25-167).
T4 construct: Bought protein used as analyte in the Biacore tests; not shown: his tag
Described as above.
Excerpt: as §1, §2

B1: mouse anti-PD-1 monoclonal antibody E1G5D1H1 (antibody, V domains shown)
VH: EVQLVESGGGLVKPGGSLKLSCAASGFTFSDFYMYWVRQTPEKRLEWVATISNSGTQTYYLDSVKGRFTISRDNAKNNLYLQMSSLKSEDTAMYYCARDYYRYDSWYFDVWGAGTTVTVSS
VL: DIVLTQSPASLAVSQGQRATISCRASESVDFYGTSLMQWFQLKPGQPPKLLIYAASNVESGVPARFSGSGSGTNFSLNIHPVEEDDIAMYFCQQSRKVPWTFGGGTNLEIK
notes: Hybridoma-derived mouse mAb; also called EIG5D1H1; E1G5DIH1
B1: the figures for the EC50 in assay [1] and in assay [2] were 0.23 nM and 0.0379 nM, respectively. In addition, the IC50 – broadly, the point on the concentration scale where inhibition reaches its midpoint – was 0.496 nM in assay [3] and 0.0629 nM in assay [4]. Moreover, the values for the Kd in assay [5] and in assay [6] were 0.125 nM and 0.236 nM, respectively. Also, the koff (in general, the first-order rate constant of dissociation) was determined as 4.32e-05 s⁻¹ in assay [5] and 8.56e-05 s⁻¹ in assay [6]. Further, the kon (in general, a measure of how fast the partners come together) in assay [5] is 345000 M⁻¹ s⁻¹; in assay [6] it was 363000 M⁻¹ s⁻¹.

B2: mouse anti-PD-1 monoclonal antibody E1A9C8A7 (antibody, V domains shown)
VH: QVQLQQSGAEVVRPGVSVRISCKGSGYTFSDYVMHWMKQSHGESLEWIGVISTYHIPAVYNQKFKGKATMTVDKSSSTVYLELARLTSEDSAIYYCAREVYGDSYYFDVWGAGTTVTVSS
VL: DVLMTQIPLSLPVSLGDQVSISCRSSQSIVHSNGNTYLEWYLQKPGQSPKLLIYKVSNRFSGVPDRFSGSGSGTDFTLKISRVEAEDLGVYYCFQGSHVPYTFGGGTKLEIK
notes: Hybridoma-derived mouse mAb purified on Protein A; also called Mouse E1A9C8A7
Regarding B2, the EC50 (usually the midpoint of the concentration-response curve) in assay [1] stood at 0.37 nM; in assay [2], 0.0554 nM. Moreover, the IC50 in assay [3] was found to be 0.782 nM; in assay [4] it was 0.0982 nM. For the same molecule, the Kd (commonly the free concentration of one partner at which half of the binding sites on the other are occupied at equilibrium, for simple one-to-one binding) in assay [5] amounted to 1.13 nM; in assay [6], 1.1 nM. The koff was 0.000119 s⁻¹ in assay [5] and 0.00022 s⁻¹ in assay [6]. Besides, the kon in assay [5] turned out to be 106000 M⁻¹ s⁻¹; in assay [6] it was 199000 M⁻¹ s⁻¹.

B3: mouse anti-PD-1 monoclonal antibody E2G4E10B7 (antibody, V domains shown)
VH: QVQLQQSGAELVRPGVSVKISCKGSGYTFTDYVMHWVRQSHAKSLEWIGVISTHFGDGVYNQKFKGKATMTVDKSSSTAYMELARLTSEDSAIYYCAREVYGDSWYFDVWGAGTTVTVSS
VL: B2 VL with I7T, V19A, I29L, N33D, V83L
notes: Hybridoma-derived mouse mAb; also called Mouse E2G4E10B7
Regarding B3, the EC50 in assay [1] worked out at 0.483 nM; in assay [2] it was 0.0647 nM. Also, the IC50 came to 0.484 nM in assay [3] and 0.162 nM in assay [4]. The results for the Kd in assay [5] and in assay [6] were 1.16 nM and 0.906 nM, respectively. Further, the figures for the koff in assay [5] and in assay [6] were 0.000161 s⁻¹ and 0.00022 s⁻¹, respectively. The values for the kon in assay [5] and in assay [6] were 138000 M⁻¹ s⁻¹ and 243000 M⁻¹ s⁻¹, respectively.
